The source of these data is EP4019090A1.

Broadly, the Kd is the free concentration of one partner at which half of the binding sites on the other are occupied at equilibrium, for simple one-to-one binding. A high value points to a looser complex. The term IC50 denotes the concentration that inhibits the measured activity by half. A lower IC50 goes with inhibition by little substance. For orientation: koff means a measure of how fast the partners let go of each other. A low value points to slow dissociation. By kon is commonly meant the second-order rate constant of association. Low values mean slow association, high ones fast association.

The target of assay [1] is Human IL-4R-Fc (human) (UniProt P24394). Kind of assay: SPR. A general note: Surface plasmon resonance follows binding to a sensor surface in real time, without labels.
Sequence of Human IL-4R-Fc (human) (P24394 26-232 limits assumed): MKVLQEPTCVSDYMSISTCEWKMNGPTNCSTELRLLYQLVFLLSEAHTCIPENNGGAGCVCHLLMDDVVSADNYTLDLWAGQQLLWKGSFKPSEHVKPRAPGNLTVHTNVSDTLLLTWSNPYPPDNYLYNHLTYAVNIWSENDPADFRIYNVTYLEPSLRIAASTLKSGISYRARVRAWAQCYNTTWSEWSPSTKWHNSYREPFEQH
The target of assay [2] is Biotinylated IL-4R (human) (UniProt P24394). Kind of assay: competitive ELISA; IL-4 coated, biotinylated IL-4R preincubated with scFv; reference dupilumab. For orientation: ELISA stands for enzyme-linked immunosorbent assay.
Sequence of Biotinylated IL-4R (human) (P24394 26-232 limits assumed): as above
Assay [3] shares this target. In words: competitive ELISA; IL-4 coated, biotinylated IL-4R preincubated with scFv, streptavidin-HRP.
For assay [4], the target named is Human IL-4R-Fc (human) (UniProt P24394). In words: SPR (Biacore T200); human IL-4R-Fc captured via anti-human IgG-Fc, scFv as analyte; 1:1 model.

Residue numbers refer to the chain shown, from its start.

B1: PRO1517 (scFv, from another filing)
scFv: DIQMTQSPSSLSASVGDRVTITCQASEDIESYLAWYQQKPGKAPKLLIYRASTLAYGVPSRFSGSGSGTDFTLTISSLQPEDFATYYCLGSSYSTGSNIFGTGTKVTVLGGGGGSGGGGSGGGGSGGGGSEVQLVESGGGLVQPGGSLRLSCAASGFSSSSAHYMCWVRQAPGKGLEWIGCIYAGSRGSTYYASWAKGRFTISRDNSKNTVYLQMNSLRAEDTAVYYCARAAFVNRGVSWIWPYYFSLWGQGTLVTVSS
Consider B1, for which the Kd with Human IL-4R-Fc (human) [1] is below 0.5 nM. The rel. IC50 (IC50, dupilumab/IC50 test sample) in assay [2] turned out to be 3.46. This molecule also registered an IC50 in assay [3] of 0.54 ng/mL.

B2: PRO1535 (scFv, from another filing)
scFv: B1 scFv with A43P, V132S, G180A, R204K, Y227F
With B2, in the assay with Human IL-4R-Fc (human) [4], the equilibrium dissociation constant (Kd) came out at 0.0199 nM, the koff stood at 5.42e-05 s⁻¹ and the association rate constant (kon) was 2.72e+06 M⁻¹ s⁻¹. This molecule gave a Kd with Human IL-4R-Fc (human) [1] below 0.5 nM. The rel. IC50 (IC50, dupilumab/IC50 test sample) in assay [2] was found to be 0.98. The same molecule registered a half-inhibitory concentration (IC50) in assay [3] of 1.92 ng/mL.
